B1: 1301B7 Fab (Fab, V domains shown)
VH: EVQLVESGAEVKNPGSSVKVSCKASEGTFGSYPIIWVRQAPGQGLEWVGGIIPILGTVIYAQKFQGRVTITGDTYAGSAHMELSGLRSEDTAVFYCARGSYDYGDRLLNYTYYAMDVWGPGTTVTVSS
VL: QPGLTQPPSVSGAPGQRVTISCTGSRSNIGAVYAVHWYQHVPGAAPKLLIYENNNRPSGIPDRFSGSKSGTSASLVITGLQAEDEADYLCQSYDRSVGVVFGGGTRLTVL
B2: 1301B7 recombinant human monoclonal antibody (hmAb), IgG1 (antibody, V domains shown)
VH: B1 VH
VL: B1 VL

How the values were obtained:
[1] = target: SARS-CoV-2 EG5.1 S ectodomain with 6P and furin mutations, trimer (SARS-CoV-2 Omicron EG.5.1, stabilised); assay: cryo-EM structure
[2] = target: SARS-CoV-2 Spike Wuhan-Hu-1 (SARS-CoV-2 Wuhan-Hu-1, UniProt P0DTC2); assay: ELISA

Binder	stoichiometry N [1]	binding result [2]
B1	1 Fab per Spike trimer	
B2		binds

Reference: doi:10.1101/2024.04.27.591446 (bioRxiv, 2024)
